Test results published in patent publication US7943296B2, “Methods of screening using a natriuretic peptide receptor” (Oregon Health & Science University, priority 2005, dated 2011).

Tests used:
full-length NPRA = target: T1, full-length NPRA (Homo sapiens, UniProt P16066); assay: Association of NPRA fragment with full-length NPRA; format: binding; details: in the presence or absence of activated PKG
T1 sequence (P16066 33-1061): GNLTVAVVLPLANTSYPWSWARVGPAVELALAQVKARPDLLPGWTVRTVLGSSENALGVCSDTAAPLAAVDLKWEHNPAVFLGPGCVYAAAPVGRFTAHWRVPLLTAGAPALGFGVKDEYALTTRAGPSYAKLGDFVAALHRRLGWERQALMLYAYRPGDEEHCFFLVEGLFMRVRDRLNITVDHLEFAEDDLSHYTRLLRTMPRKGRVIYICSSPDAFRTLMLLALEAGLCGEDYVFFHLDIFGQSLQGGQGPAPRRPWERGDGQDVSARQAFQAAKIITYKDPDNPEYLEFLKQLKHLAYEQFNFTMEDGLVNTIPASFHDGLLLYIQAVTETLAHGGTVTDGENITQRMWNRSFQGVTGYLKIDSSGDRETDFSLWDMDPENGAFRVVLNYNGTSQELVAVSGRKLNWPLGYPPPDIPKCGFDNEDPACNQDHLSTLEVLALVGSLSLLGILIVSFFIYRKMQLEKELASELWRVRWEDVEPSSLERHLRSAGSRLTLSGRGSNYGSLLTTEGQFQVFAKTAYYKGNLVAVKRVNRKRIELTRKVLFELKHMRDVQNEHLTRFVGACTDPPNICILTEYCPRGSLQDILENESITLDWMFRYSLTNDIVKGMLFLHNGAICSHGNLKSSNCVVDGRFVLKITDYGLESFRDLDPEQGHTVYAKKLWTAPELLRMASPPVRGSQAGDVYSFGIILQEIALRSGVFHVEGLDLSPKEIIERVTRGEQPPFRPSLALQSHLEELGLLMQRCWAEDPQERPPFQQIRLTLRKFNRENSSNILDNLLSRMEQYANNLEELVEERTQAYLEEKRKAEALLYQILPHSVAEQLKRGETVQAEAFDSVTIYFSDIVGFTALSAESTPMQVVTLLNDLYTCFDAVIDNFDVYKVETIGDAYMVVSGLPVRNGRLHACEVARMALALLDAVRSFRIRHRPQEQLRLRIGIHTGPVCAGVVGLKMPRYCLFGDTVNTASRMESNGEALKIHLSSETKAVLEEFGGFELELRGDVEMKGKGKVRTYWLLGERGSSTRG

[1] = test system: cardiac fibroblasts (CFs); assay: Vimentin localisation in CFs by immunofluorescence microscopy; format: cell-based, rat; details: fragment expressed
Procedure: NP's ability to inhibit growth factor-induced CF differentiation into myofibroblasts was determined as follows. CFs were transiently transfected with insertless pcDNA3 vector or pcDNA3 encoding sNRF^(806-900) (see Example 7). The transfected CFs were then treated for 48 hours with 10 ng/ml basic fibroblast growth factor (FGF; Sigma-Aldrich #F0291) in the presence or absence of 100 nM ANP. Alpha-smooth muscle actin (α-SMA) protein expression, the principal marker of CF differentiation, was assessed by Western blotting and immunofluorescence microscopy. Vimentin staining was used as a loading control because it is expressed equally in fibroblasts and transdifferentiated myofibroblasts.
For the immunofluorescence microscopy, slide wells were treated as described in Example 7 and incubated with anti-α-SMA and anti-vimentin antibody as well as phalloidin to stain for actin. Briefly, cells were rinsed twice with phosphate-buffered saline (PBS) and fixed with 3.7% formaldehyde in PBS for 10 minutes. After fixation, cells were rinsed with PBS and permeabilized with 0.3% Triton X-100 in PBS for 10 minutes and blocked for 1 hour in 1% horse serum, 0.2% bovine serum albumin in PBS. Cells were then incubated with primary α-SMA antibody (ABCAM ab7817) and primary vimentin antibody (ABCAM ab7783) diluted in blocking solution for 1 hour and washed three times with blocking solution for 5 minutes. […]

## sNRF^(806-900): intracellular NPRA fragment, residues 806-900, excludes the cyclase-containing domain; shortest fragment observed to associate with PKG
full-length NPRA
  association with full-length NPRA: failed to associate with full-length NPRA
[1]
  ANP-associated nuclear to cytosolic translocation of vimentin: inhibited
